In patent US20180264110A1 (STSCIENCES, published 2018):

T1: BTLA triple mutant (3NQ) (human, UniProt Q7Z6A9 31-289, limits assumed)
T1 construct: N to Q read from the label
T1 chain: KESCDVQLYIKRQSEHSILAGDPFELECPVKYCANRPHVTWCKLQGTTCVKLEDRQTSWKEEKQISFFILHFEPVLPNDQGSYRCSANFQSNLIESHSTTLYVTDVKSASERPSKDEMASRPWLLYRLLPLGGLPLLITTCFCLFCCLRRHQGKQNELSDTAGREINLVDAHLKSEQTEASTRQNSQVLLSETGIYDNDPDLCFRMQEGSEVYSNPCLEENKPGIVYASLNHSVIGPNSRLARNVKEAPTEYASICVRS

B1: STC626 (antibody, V domains shown)
VH: QIQLVQSGPELKKPGETVKISCKASGYTFTNYGMNWVKQAPGKGLKWMGWINTNTGEPTYAEEFKGRIAFSLESSASTAYLQINNLKNEDTATYFCAREGVRRGGYFFDYWGQGTTLTVSS
VL: DIQMTQSPASLSVSVGETVTITCRASENIYSNLAWYQQKQGKSPQLLVYAATNLADGVPSRFSGSGSGTQYSLKINSLQSEDFGSYHCQHFWGFPFTFGAGTKLEIKR
B2: STC613 (antibody, V domains shown)
VH: EVQLQQSGAELVRPGASVKLSCTASGFNIRDDYVHWLKQRPDQGLEWIGRIDPANGKTKYDPKFQDKATITADTSSNTAYLQLSSLTSEDTAVYFCVREGGSNYDYAMDYWGQGTSVTVSS
VL: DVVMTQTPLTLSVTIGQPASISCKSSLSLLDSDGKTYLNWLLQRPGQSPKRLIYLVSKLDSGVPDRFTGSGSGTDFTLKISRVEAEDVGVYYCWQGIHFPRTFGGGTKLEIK
notes: also called STM613

Experiments:
BTLA triple mutant (3NQ) = target: T1, BTLA triple mutant (3NQ); assay: Western blot
Protocol: (§1) Immunoblot analysis was performed as described previously (Lim et al., 2008, Gastroenterology, 135:21 28-40; and Lee et al., 2007, Cell, 130:440-455). Image acquisition and quantitation of band intensity were performed using a Chemdoc Imager (BioRad, Hercules, Calif., US). The secondary antibodies were anti-mouse or -rabbit Alexa Fluor 488 or 594, and nuclei were stained with 4′,6-diamidino-2-phenylindole (DAPI) (Life Technologies, Carlsbad, Calif., US).
(§2) In the Western blot assays, anti-BTLA mAbs were tested for their ability to recognize fully glycosylated wild-type BTLA and to recognize certain BTLA mutants lacking two (N75/2NQ, N94/2NQ, N116/2NQ) or all three (3NQ) of BTLA's N-glycosylation sites. […] Generally, the band intensities shown in the Western blots of FIG. 2 indicate the specific glycosylation motif recognized by each of the tested antibodies and the binding strength of the tested antibodies to the recognized glycosylation motifs.

N75/2NQ [1] = target: T2, N75/2NQ (human, UniProt Q7Z6A9); assay: Western blot of BTLA WT and glycosylation-site mutants probed with STC626 [continued]
T2 construct: double mutant, single glycosylation site N75; One member of the group m43; also called BTLA double mutant that retains only the N75 glycosylation site
Protocol: as §1, §2

N75/2NQ [2] = target: T2, N75/2NQ; assay: Western blot of BTLA WT and glycosylation-site mutants probed with STC613 [continued]
Protocol: as §1, §2

Binder | binding result (BTLA triple mutant (3NQ)) | binding result (N75/2NQ [1]) | binding result (N75/2NQ [2])
B1 | no binding | binds | 
B2 | no binding |  | binds
